Patent US20120321668A1

Assays:
[1] = molecular target: TLR2 TMD peptide labelled with Rho (TLR2-Rho); assay: FRET, gp41 TMD-NBD constant at 0.4 µM and TLR2-Rho added at 0.025-0.8 µM, 100 µM LUVs
[2] = molecular target: CD3 molecules of the CD3/TCR complex on mouse T cells (mouse) (UniProt A2KF29); assay: confocal fluorescence microscopy, NBD-peptide and labelled anti-CD3 antibody on mouse T cells

gp41 TMD conjugated to NBD (gp41 transmembrane domain peptide, NBD-labelled)
percent of energy transfer (FRET) [1]: > 60% | co-localization percentage [2]: 58.8%
